Publication PMC2172161 (The Journal of Cell Biology, 2004)
Positions count from the first letter of the chain named. Numbers in names are those of the source.

Assays:
[1] = molecular target: T1, GST-Cdc3 (S. cerevisiae, UniProt P32457 1-520); assay: pull-down
T1 sequence: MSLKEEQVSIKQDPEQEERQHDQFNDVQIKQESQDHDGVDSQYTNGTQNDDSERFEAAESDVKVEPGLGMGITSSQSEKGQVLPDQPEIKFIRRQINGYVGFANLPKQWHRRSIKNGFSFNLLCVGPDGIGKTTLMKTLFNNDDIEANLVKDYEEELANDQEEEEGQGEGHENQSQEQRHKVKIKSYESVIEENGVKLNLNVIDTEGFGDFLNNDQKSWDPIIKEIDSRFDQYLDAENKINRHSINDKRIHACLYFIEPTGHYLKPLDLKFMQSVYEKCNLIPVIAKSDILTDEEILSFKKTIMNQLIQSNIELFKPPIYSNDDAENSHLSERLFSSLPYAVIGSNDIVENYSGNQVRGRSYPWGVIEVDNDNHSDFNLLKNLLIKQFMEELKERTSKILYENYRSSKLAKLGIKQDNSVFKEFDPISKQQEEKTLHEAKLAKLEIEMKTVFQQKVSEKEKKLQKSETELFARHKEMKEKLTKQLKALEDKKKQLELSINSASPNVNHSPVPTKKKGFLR

[2] = molecular target: T2, GST-Cdc12 (S. cerevisiae, UniProt P32468 1-407); assay: pull-down
T2 sequence: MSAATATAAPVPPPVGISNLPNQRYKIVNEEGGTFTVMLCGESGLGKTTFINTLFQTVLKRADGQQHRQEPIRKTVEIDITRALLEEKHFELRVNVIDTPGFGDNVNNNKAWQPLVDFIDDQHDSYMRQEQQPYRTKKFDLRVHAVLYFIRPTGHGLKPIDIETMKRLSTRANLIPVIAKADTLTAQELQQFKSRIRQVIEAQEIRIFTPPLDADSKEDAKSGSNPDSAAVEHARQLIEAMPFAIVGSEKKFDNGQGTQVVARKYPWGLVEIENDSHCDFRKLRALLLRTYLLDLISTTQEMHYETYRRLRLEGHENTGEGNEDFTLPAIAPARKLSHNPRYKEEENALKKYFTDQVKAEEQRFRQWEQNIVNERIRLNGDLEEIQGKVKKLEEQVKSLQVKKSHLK

[3] = molecular target: T3, GST-HSL1(833-1518) (S. cerevisiae, UniProt P34244 833-1518); assay: pull-down
T3 sequence: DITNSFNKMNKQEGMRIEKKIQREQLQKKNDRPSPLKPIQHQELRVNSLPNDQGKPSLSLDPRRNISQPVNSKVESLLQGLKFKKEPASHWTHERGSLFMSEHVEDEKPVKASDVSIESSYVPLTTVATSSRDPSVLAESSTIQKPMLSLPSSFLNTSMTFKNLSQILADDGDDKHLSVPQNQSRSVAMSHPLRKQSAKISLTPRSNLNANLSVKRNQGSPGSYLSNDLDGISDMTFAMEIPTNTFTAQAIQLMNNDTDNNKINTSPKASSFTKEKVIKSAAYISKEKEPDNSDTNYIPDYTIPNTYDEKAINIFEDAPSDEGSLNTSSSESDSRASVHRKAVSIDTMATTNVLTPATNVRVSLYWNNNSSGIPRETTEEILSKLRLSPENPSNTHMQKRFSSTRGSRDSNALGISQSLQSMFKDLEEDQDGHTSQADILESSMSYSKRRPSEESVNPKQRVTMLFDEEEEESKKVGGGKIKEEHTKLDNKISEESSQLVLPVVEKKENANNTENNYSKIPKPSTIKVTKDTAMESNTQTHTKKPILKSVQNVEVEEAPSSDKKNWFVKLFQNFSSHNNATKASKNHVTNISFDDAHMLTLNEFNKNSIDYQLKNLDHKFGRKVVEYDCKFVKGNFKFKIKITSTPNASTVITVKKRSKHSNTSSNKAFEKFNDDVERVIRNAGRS

[4] = molecular target: T4, GST-Cdc11 (S. cerevisiae, UniProt P32458 1-415); assay: pull-down
T4 sequence: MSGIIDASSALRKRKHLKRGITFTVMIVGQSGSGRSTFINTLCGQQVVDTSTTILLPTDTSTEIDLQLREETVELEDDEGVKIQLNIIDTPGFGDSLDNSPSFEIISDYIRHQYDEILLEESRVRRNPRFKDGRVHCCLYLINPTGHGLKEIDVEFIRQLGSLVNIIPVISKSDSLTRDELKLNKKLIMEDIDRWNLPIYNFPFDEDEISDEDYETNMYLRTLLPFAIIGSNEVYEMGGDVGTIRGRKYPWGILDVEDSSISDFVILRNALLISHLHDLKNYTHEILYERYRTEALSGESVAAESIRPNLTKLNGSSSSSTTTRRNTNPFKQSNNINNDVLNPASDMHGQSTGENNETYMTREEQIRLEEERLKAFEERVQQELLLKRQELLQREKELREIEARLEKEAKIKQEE

[5] = molecular target: the molecule itself; assay: fluorescence microscopy of purified complexes on slides
[6] = molecular target: T5, GST-Cla4 (S. cerevisiae, UniProt P48562 1-842); assay: pull-down
T5 sequence: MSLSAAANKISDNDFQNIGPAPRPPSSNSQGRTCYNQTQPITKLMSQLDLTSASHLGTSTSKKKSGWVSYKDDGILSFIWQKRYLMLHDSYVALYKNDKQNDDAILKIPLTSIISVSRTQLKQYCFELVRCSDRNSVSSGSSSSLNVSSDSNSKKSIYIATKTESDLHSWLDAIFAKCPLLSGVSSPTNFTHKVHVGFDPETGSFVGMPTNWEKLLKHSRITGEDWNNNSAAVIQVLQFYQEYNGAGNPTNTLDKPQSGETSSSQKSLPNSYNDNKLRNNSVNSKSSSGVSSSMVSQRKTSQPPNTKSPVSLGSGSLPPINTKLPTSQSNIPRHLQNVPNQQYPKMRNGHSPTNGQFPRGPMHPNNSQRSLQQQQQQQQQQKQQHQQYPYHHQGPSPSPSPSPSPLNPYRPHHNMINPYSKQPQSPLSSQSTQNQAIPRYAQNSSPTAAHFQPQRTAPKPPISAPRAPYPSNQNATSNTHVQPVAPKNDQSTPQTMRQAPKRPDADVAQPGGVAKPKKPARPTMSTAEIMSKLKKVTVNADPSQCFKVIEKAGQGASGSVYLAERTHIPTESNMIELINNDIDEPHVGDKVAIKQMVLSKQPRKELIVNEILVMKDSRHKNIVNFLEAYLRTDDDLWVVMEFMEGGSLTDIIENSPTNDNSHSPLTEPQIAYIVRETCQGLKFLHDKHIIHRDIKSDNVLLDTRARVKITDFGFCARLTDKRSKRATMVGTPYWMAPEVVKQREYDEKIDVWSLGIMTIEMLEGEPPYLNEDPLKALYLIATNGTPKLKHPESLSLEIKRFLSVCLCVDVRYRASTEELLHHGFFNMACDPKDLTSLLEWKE

B1: Cdc12(T48N)-His6 (natural protein)
chain: T2 sequence with T48N
- binding result [1]: binds
- binding result [2]: binds
- binding result [3]: binds
- binding result [4]: binds

B2: Heterotetrameric complex containing just Cdc12(T48N), but wild-type Cdc3, Cdc10, and Cdc11 (complex)
chain 1: T2 sequence with T48N
chain 2: T1 sequence
chain 3: MDPLSSVQPASYVGFDTITNQIEHRLLKKGFQFNIMVVGQSGLGKSTLINTLFASHLIDSATGDDISALPVTKTTEMKISTHTLVEDRVRLNINVIDTPGFGDFIDNSKAWEPIVKYIKEQHSQYLRKELTAQRERFITDTRVHAILYFLQPNGKELSRLDVEALKRLTEIANVIPVIGKSDTLTLDERTEFRELIQNEFEKYNFKIYPYDSEELTDEELELNRSVRSIIPFAVVGSENEIEINGETFRGRKTRWSAINVEDINQCDFVYLREFLIRTHLQDLIETTSYIHYEGFRARQLIALKENANSRSSAHMSSNAIQR
chain 4: T4 sequence
- binding result [5]: binds

B3: His6-Cdc10 (natural protein)
chain: B2 chain 3
- binding result [6]: binds

B4: His6-Cdc3 (natural protein)
chain: T1 sequence
- binding result [6]: binds
